# B1: 426 (protein)
# chain: SAAITQEGAAPAAMLHPEKWPRPATQRLIDPAVEKRVDALLKQLSVEEKVGQVIQGDIGTITPEDLRKYPLGSILAGGDSGPNGDDRAPPKEWLDLADAFYRVSLEKRPGHTPIPVLFGIDAVHGHNNIGSATIFPHNIALGMTRDPELLRRIGEVTAEEMAATGIDWTFAPALSVPRDDRWGRTYEGFSEDPEIVASYSAAIVEGFQGKYGSKDFMAPGRAVACAKHFLADGGTDQGRDQGDARISEDELIRIHNAGYPPAIDAGVLTVMASFSSWQGIKHHGHKQLLTDVLKGQMGFNGFIVGDWNAHDQVPGCTKFNCPTSLIAGLDMYMAADSWKQLYENTLAQVKDGTIPMARLDDAVRRILRVKVLAGLFEKPAPKDRPGLPGLETLGSPEHRTVGREAVRKSLVLLKNDKGTLPLSPKARVLVAGDGADNIGKQSGGWTISWQGTGNRNDEFPGATSILGGIRDAVADAGGSVEFDVAGQYKTKPDVAIVVFGEEPYAEFRGDVETLEYQPDQKQDLTLLKKLKDQGIPVVAVFLSGRPMWVNPELNASDAFVAAWLPGTEGGGVADVLFTDKAGKVQHDFAGKLSYSWPRTAAQTTVNRGDADYNPLFAYGYGLTYKDKSKVGTLPEESGVPAEARQNAGIYFRAGALRLPGRFL
# modifications: truncated; signal peptide F-10T
# B2: 427 (protein)
# chain: SAAITQEGAAPAAMLHPEKWPRPATQRLIDPAVEKRVDALLKQLSVEEKVGQVIQGDIGTITPEDLRKYPLGSILAGGDSGPNGDDRAPPKEWLDLADAFYRVSLEKRPGHTPIPVLFGIDAVHGHNHIGSATIFPHNIALGMTRDPELLRRIGEVTAEEMAATGIDWTFAPALSVPRDDRWGRTYEGFSEDPEIVASYSAAIVEGFQGKYGSKDFMAPGRAVACAKHFLADGGTDQGRDQGDARISEDELIRIHNAGYPPAIDAGVLTVMASFSSWQGIKHHGHKQLLTDVLKGQMGFNGFIVGDWNAHDQVPGCTKFNCPTSLIAGLDMYMAADSWKQLYENTLAQVKDGTIPMARLDDAVRRILRVKVLAGLFEKPAPKDRPGLPGLETLGSPEHRAVGREAVRKSLVLLKNDKGTLPLSPKARVLVAGDGADNIGKQSGGWTISWQGTGNRNDEFPGATSILGGIRDAVADAGGSVEFDVAGQYKTKPDVAIVVFGENPYAEFRGDVETLEYQPDQKQDLTLLKKLKDQGIPVVAVFLSGRPMWVNPELNASDAFVAAWLPGTEGGGVADVLFTDKAGKVQYDFAGKLSYSWPRTAAQTTVNRGDADYNPLFAYGYGLTYKDKSKVGTLPEESGVPAEARQNAGIYFRAGALRLPGRFL
# modifications: truncated; signal peptide F-10T
# B3: Variant No. 366 (protein)
# chain: SAAITQEGAAPAAMLHPEKWPRPATQRLIDPAVEKRVDALLKQLSVEEKVGQVIQGDIGTITPEDLRKYPLGSILAGGDSGPNGDDRAPPKEWLDLADAFYRVSLEKRPGHTPIPVLFGIDAVHGHNNIGSATIFPHNIALGMTRDPELLRRIGEVTAEEMAATGIDWTFAPALSVVRDDRWGRTYEGFSEDPEIVASYSAAIVEGFQGKYGSKDFMAPGRAVACAKHFLADGGTDQGRDQGDARISEDELIRIHNAGYPPAIDAGVLTVMASFSSWQGIKHHGHKQLLTDVLKGQMGFNGFIVGDWNAHDQVPGCTKFNCPTSLIAGLDMYMAADSWKQLYENTLAQVKDGTIPMARLDDAVRRILRVKVLAGLFEKPAPKDRPGLPGLETLGSPEHRAVGREAVRKSLVLLKNDKGTLPLSPKARVLVAGDGADNIGKQSGGWTISWQGTGNRNDEFPGATSILGGIRDAVADAGGSVEFDVAGQYKTKPDVAIVVFGEEPYAEFRGDVETLEYQPDQKQDLTLLKKLKDQGIPVVAVFLSGRPMWVNPELNASDAFVAAWLPGTEGGGVADVLFTDKAGKVQHDFAGKLSYSWPRTAAQTTVNRGDADYNPLFAYGYGLTYKDKSKVGTLPEESGVPAEARQN
# modifications: catalytic domain; signal sequence F-10T
# B4: Variant No. 5 (protein)
# chain: STAIAQEGAAPAAILHPEKWPRPATQRLIDPAVEKRVDALLKQLSVEEKVGQVIQGDIGTITPEDLRKYPLGSILAGGNSGPNGDDRAPPKEWLDLADAFYRVSLEKRPGHTPIPVLFGIDAVHGHGNIGSATIFPHNIALGATRDPELLRRIGEVTAVEMAATGIDWTFAPALSVVRDDRWGRTYEGFSEDPEIVAAYSAAIVEGVQGKFGSKDFMAPGRIVASAKHFLADGGTDQGRDQGDARISEDELIRIHNAGYPPAIDAGVLTVMASFSSWQGIKHHGHKQLLTDVLKGQMGFNGFIVGDWNAHDQVPGCTKFNCPTSLIAGLDMYMAADSWKQLYENTLAQVKDGTIPMARLDDAVRRILRVKVLAGLFEKPAPKDRPGLPGLETLGSPEHRAVGREAVRKSLVLLKNDKGTLPLSPKARVLVAGDGADNIGKQSGGWTISWQGTGNRNDEFPGATSILGGIRDAVADAGGSVEFDVAGQYKTKPDVAIVVFGEEPYAEFQGDVETLEYQPDQKQDLALLKKLKDQGIPVVAVFLSGRPMWVNPELNASDAFVAAWLPGTEGGGVADVLFTDKAGKVQHDFAGKLSYSWPRTAAQTTVNRGDADYNPLFAYGYGLTYKDKSKVGTLPEESGVPAEARQNAGIYFRAGALRLPGRFL
# B5: Variant No. 94 (protein)
# chain: STAIAQEGAAPAAILHPEKWPRPATQRLIDPAVEKRVDALLKQLSVEEKVGQVIQGDIGTITPEDLRKYPLGSILAGGDSGPNGDDRAPPKEWLDLADAFYRVSLEKRPGHTPIPVLFGIDAVHGHGNIGSATIFPHNIALGMTRDPELLRRIGEVTAEEMAATGIDWTFAPALSVVRDDRWGRTYEGFSEDPEIVASYSAAIVEGVQGKYGSKDFMAPGRIVASAKHFLADGGTDQGRDQGDARISEDELIRIHNAGYPPAIDAGVLTVMASFSSWQGIKHHGHKQLLTDVLKGQMGFNGFIVGDWNAHDQVPGCTKFNCPTSLIAGLDMYMAADSWKQLYENTLAQVKDGTIPMARLDDAVRRILRVKVLAGLFEKPAPKDRPGLPGLETLGSPEHRAVGREAVRKSLVLLKNDKGTLPLSPKARVLVAGDGADNIGKQSGGWTISWQGTGNRNDEFPGATSILGGIRDAVADAGGSVEFDVAGQYKTKPDVAIVVFGEEPYAEFQGDVETLEYQPDQKQDLALLKKLKDQGIPVVAVFLSGRPMWVNPELNASDAFVAAWLPGTEGGGVADVLFTDKAGKVQHDFAGKLSYSWPRTAAQTTVNRGDADYNPLFAYGYGLTYKDKSKVGTLPEESGVPAEARQNAGIYFRAGALRLPGRFL
# What was measured:
# Type in all cases: biochemical
# [1] = High throughput cellobiose assay: fold improvement in cellobiase activity of CelA variants over a control enzyme (Tables 2A-2D, 3, 5, 6, 7); conditions: for Fold Improvement over Control Variant: 3.3 g/l cellobiose, 65° C. and pH 5 (incubation overnight), relative to Control #5, Variant No. 366 (SEQ ID NO: 9); for activity (e.g., thermoactivity) over the wildtype A. irakense β-glucosidase: assay of Example 7
# [2] = Activity profile at different temperatures and pH using cellobiose (10 g/L) as substrate
# Experimental: β-glucosidase activity was also determined using a cellobiose assay, which used cellobiose as substrate. In a total volume of 100 μL, 25 μL clear media supernatant containing CelA enzyme was added to 10 g/L cellobiose (Fluka Cat. No. 22150, Sigma-Aldrich, Inc., St. Louis, Mo.) in 100 mM sodium phosphate buffer (pH 6-7) or sodium acetate buffer (pH 5-5.5). The reaction was incubated at 45-70° C. for an appropriate time (25 minutes to overnight depending on the enzyme concentration) while shaking. Glucose production was determined using an enzymatic glucose assay (K-GLUC, Megazyme, Ireland). 10 μl of each reaction was added to 190 μl GOPOD reagent (supplied as part of the K-GLUC assay kit). The reaction was incubated at 45° C. for 20 minutes and the absorbance of the solution was measured at 510 nm. The GOPOD reagent contains 50 mM Potassium phosphate buffer pH7.4, 0.011M p-hydroxybenzoic acid, 0.008% w/v sodium azide, glucose oxidase (>12,000 U/L), peroxidase (>650 U/L) and 80 mg/L 4-aminoantipyrine. The glucose oxidase enzyme in the reagent reacts with any glucose present in the sample and produces hydrogen peroxide which then reacts with the 4-aminoantipyrine to produce a quinoneimine dye in quantities proportionate with the amount of glucose present and can be measured spectrophotometrically at 510 nm. Detectable β-glucosidase activity was observed under high throughput screening conditions (i.e., pH 7, 50° C.).
# The native CelA activity profile was investigated at different temperatures (40-55° C.) and pH (5.0-8.0) using cellobiose (10 g/L) as a substrate. The experimental and analytical procedures are described in Example 5.
# The activity profiles for Variant Nos. 264, 366, 391, 463, and 529 were determined at different temperatures and pH using cellobiose (10 g/L) as a substrate. The experimental and analytical procedures are described in Example 5, incubating the variant with cellobiose at temperatures in the range of 45-80. The results are depicted in FIGS. 7-11. […] The temperature and pH profile for this variant is depicted in FIG. 7. […] The temperature and pH profile for this variant is depicted in FIG. 8. […] The temperature and pH profile for this variant is depicted in FIG. 9. […] (with the pH 6 optimum determined by extrapolation). The temperature and pH profile for this variant is depicted in FIG. 10. […] The temperature and pH profile for this variant is depicted in FIG. 11.
# [3] = Enzyme stability: residual activity on pNPG after pre-incubation at high temperature and low pH; conditions: residual activity on pNPG at pH 7, 30° C.; for % residual activity after 10 mins @ pH 5.5, 55° C.: pre-incubation 10 mins at pH 5.5, 55° C.; for % residual activity after 10 mins @ pH 5.5, 55° C. / % residual activity after 6 hours @ pH 5.5, 55° C.: 1 hr; for % residual activity after 1 hour @ pH 5.5, 55° C.: pre-incubation 1 hour at pH 5.5, 55° C.; for % residual activity after 6 hours @ pH 5.5, 55° C.: pre-incubation 6 hours at pH 5.5, 55° C.
# Experimental: Residual activity is determined by exposing the enzyme to stress conditions of elevated temperature for a period of time and then determining the β-glucosidase activity. The β-glucosidase activity of the enzyme exposed to stress conditions (“a”) is compared to that of a control in which the enzyme is not exposed to the stress conditions (“b”), and residual activity is equal to the ratio a/b. Exemplary conditions for determining thermostability are provided in Examples 9 and 13. In one embodiment the enzymes are exposed to stress conditions of 50° C. at pH 5.5 or 55° C. at pH 5.0 or 55° C. at pH 5.5, or 65° C. at pH 5.0 for about 1 hour, and assayed at 30° C., pH 7, for about 0.1 hour.
# A colorimetric pNPG (p-nitrophenyl-(β-D-glucopyranoside)-based assay was used for measuring β-glucosidase activity. In a total volume of 100 μL, 20 μL clear media supernatant containing β-glucosidase enzyme was added to 4 mM pNPG (Sigma-Aldrich, Inc. St. Louis, Mo.) solution in 50 mM sodium phosphate buffer at pH6.5. The reactions were incubated at pH 6.5, 45° C. for 1 hour. The reaction mixture was quenched with 100 μL of 1M sodium carbonate pH 11 solution. The absorbance of the solution was measured at 405 nm to determine the conversion of pNPG to p-nitrophenol. The release of p-nitrophenol (ε=17,700 M−1 cm−1) was measured at 405 nm to calculate β-glucosidase activity. Detectable β-glucosidase activity was observed under high throughput screening conditions (pH 7, 50° C.).
# Four CelA variants and wildtype CelA were characterized to determine their stabilities at high temperature (55° C.) and low pH (pH5.5) using the method of Example 5A. The samples containing various CelA variant enzymes were pre-incubated at pH 5.5, 55° C. for 0-6 hrs. The residual enzyme activity after the thermal challenge was measured using pNPG as substrate at pH 7, 30° C. for 1 hr. […] The mutations listed in the table are indicated relative to SEQ ID NO: 4, the wildtype CelA. These sequences included residues GTS prior to the N-terminus of SEQ ID NO: 4 (prepared as described in Example 1). […]
Molecule,Fold Improvement over Control Variant [1],"activity (e.g., thermoactivity) over the wildtype A. irakense β-glucosidase [1]","% residual activity after 10 mins @ pH 5.5, 55° C. [3]","% residual activity after 1 hour @ pH 5.5, 55° C. [3]","% residual activity after 6 hours @ pH 5.5, 55° C. [3]",also measured
B1,++ (++ = 1.1 to 2.0 fold improvement over control Variant No. 366),,,,,
B2,++ (++ = 1.1 to 2.0 fold improvement over control Variant No. 366),,,,,
B3,,,,,,"pH of optimum activity [2]: 6 pH; temperature of optimum activity [2]: 66 °C; activity (e.g., thermoactivity) over the wildtype A. irakense β-glucosidase, demonstrated indirectly ([1]; shown by improvement over a chain of controls, of which Variant No. 5 was directly compared to the wildtype): improved activity"
B4,,improved activity,0%,0%,0%,
B5,,improved activity,3%,0%,0%,
